Reference: patent US9993529B2, “Stable formulations of a hyaluronan-degrading enzyme” (Halozyme, Inc., priority 2011, dated 2018)
Like-named read-outs stand apart in the source and are kept apart here.

Experiments:
[1] = target: T1, rHuPH20 (Homo sapiens, UniProt P38567); details: for retained % of the original activity / rHuPH20 activity (initial 600 U/mL): 75 mM NaCl
T1 sequence (P38567 36-482): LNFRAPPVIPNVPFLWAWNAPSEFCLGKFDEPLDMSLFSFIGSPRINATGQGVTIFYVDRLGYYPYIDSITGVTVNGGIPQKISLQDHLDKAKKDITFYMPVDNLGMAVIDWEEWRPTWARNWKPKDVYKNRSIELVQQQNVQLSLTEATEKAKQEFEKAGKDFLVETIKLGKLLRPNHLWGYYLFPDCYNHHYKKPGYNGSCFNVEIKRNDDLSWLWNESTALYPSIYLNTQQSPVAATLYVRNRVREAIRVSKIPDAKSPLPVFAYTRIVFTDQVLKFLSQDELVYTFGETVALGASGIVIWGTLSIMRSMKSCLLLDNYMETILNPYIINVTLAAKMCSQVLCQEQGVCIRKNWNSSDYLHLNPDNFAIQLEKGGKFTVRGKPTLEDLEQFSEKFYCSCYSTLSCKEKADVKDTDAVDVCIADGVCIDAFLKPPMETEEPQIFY
Protocol: The activity of a hyaluronan degrading enzyme can be assessed using methods well known in the art. […] A Hyaluronidase Reference Standard (USP) or National Formulary (NF) Standard Hyaluronidase solution can be used in an assay to ascertain the activity, in units, of any hyaluronidase. In one example, activity is measured using a microturbidity assay. […] The turbidity of the resulting sample is measured at 640 nm after an additional development period.

[2] = Differential scanning calorimetry, Tm of rHuPH20; format: physicochemical; details: DSC, presence of […] m-cresol
[3] = Dynamic light scattering, particle size and apparent melting temperature of rHuPH20; format: physicochemical; design: unit not given here
[4] = 1 week 30° C., pH 7.1, 10 mg/mL HA

B1: rHuPH20: secreted soluble recombinant human PH20 hyaluronidase expressed in CHO cells (nucleic acid encoding amino acids 36-482 of SEQ ID NO:1) (protein, listed as Homo sapiens)
chain: T1 sequence (P38567 36-482)
modifications: precursor human PH20
[1]; 1 mM methionine, 30° C., one month
  rHuPH20 enzymatic activity: 525 U/mL
[1]; 20 mM methionine, 30° C., one month
  rHuPH20 enzymatic activity: 522 U/mL
[1]; 1 week 30° C., pH 7.1, 1 mg/mL HA
  retained % of the original activity: 57%
[1]; 1 week 30° C., pH 7.1, 5.5 mg/mL HA, 100 mM NaCl
  % of the original rHuPH20 remained: 68%
[1]; [4]
  rHuPH20 activity (initial 600 U/mL): 510 U/mL
  retained % of the original activity: 85%
[1]; 2-8° C., 5 Months, pH 7.0, 50 mM NaCl
  rHuPH20 enzymatic activity: 494.4796
[1]; 2-8° C., 5 Months, pH 7.0, 80 mM NaCl
  rHuPH20 enzymatic activity: 575.3274
[1]; 2-8° C., 5 Months, pH 7.0, 110 mM NaCl
  rHuPH20 enzymatic activity: 615.3546
[1]; 2-8° C., 5 Months, pH 7.0, 140 mM NaCl
  rHuPH20 enzymatic activity: 582.4274
[1]; 2-8° C., 5 Months, pH 7.2, 50 mM NaCl
  rHuPH20 enzymatic activity: 481.6035
[1]; 2-8° C., 5 Months, pH 7.2, 80 mM NaCl
  rHuPH20 enzymatic activity: 566.2521
[1]; 2-8° C., 5 Months, pH 7.2, 110 mM NaCl
  rHuPH20 enzymatic activity: 593.2027
[1]; 2-8° C., 5 Months, pH 7.2, 140 mM NaCl
  rHuPH20 enzymatic activity: 585.9948
[1]; 2-8° C., 5 Months, pH 7.4, 50 mM NaCl
  rHuPH20 enzymatic activity: 526.6628
[1]; 2-8° C., 5 Months, pH 7.4, 80 mM NaCl
  rHuPH20 enzymatic activity: 564.7769
[1]; 2-8° C., 5 Months, pH 7.4, 110 mM NaCl
  rHuPH20 enzymatic activity: 618.3856
[1]; 2-8° C., 5 Months, pH 7.4, 140 mM NaCl
  rHuPH20 enzymatic activity: 585.9813
[1]; 2-8° C., 5 Months, pH 7.6, 80 mM NaCl
  rHuPH20 enzymatic activity: 546.4209
[1]; 2-8° C., 5 Months, pH 7.6, 110 mM NaCl
  rHuPH20 enzymatic activity: 581.6326
[1]; 2-8° C., 5 Months, pH 7.6, 140 mM NaCl
  rHuPH20 enzymatic activity: 594.6197
[1]; 2-8° C., 9 Months, pH 7.0, 50 mM NaCl
  rHuPH20 enzymatic activity: 436.5115
[1]; 2-8° C., 9 Months, pH 7.0, 80 mM NaCl
  rHuPH20 enzymatic activity: 513.9692
[1]; 2-8° C., 9 Months, pH 7.0, 110 mM NaCl
  rHuPH20 enzymatic activity: 551.0218
[1]; 2-8° C., 9 Months, pH 7.0, 140 mM NaCl
  rHuPH20 enzymatic activity: 554.6513
[1]; 2-8° C., 9 Months, pH 7.2, 50 mM NaCl
  rHuPH20 enzymatic activity: 451.8324
[1]; 2-8° C., 9 Months, pH 7.2, 80 mM NaCl
  rHuPH20 enzymatic activity: 518.0740
[1]; 2-8° C., 9 Months, pH 7.2, 110 mM NaCl
  rHuPH20 enzymatic activity: 553.1847
[1]; 2-8° C., 9 Months, pH 7.2, 140 mM NaCl
  rHuPH20 enzymatic activity: 536.7846
[1]; 2-8° C., 9 Months, pH 7.4, 50 mM NaCl
  rHuPH20 enzymatic activity: 466.1871
[1]; 2-8° C., 9 Months, pH 7.4, 80 mM NaCl
  rHuPH20 enzymatic activity: 509.9032
[1]; 2-8° C., 9 Months, pH 7.4, 110 mM NaCl
  rHuPH20 enzymatic activity: 560.4847
[1]; 2-8° C., 9 Months, pH 7.4, 140 mM NaCl
  rHuPH20 enzymatic activity: 542.4534
[1]; 2-8° C., 9 Months, pH 7.6, 50 mM NaCl
  rHuPH20 enzymatic activity: 464.8964
[1]; 2-8° C., 9 Months, pH 7.6, 80 mM NaCl
  rHuPH20 enzymatic activity: 515.3382
[1]; 2-8° C., 9 Months, pH 7.6, 110 mM NaCl
  rHuPH20 enzymatic activity: 531.9202
[1]; 2-8° C., 9 Months, pH 7.6, 140 mM NaCl
  rHuPH20 enzymatic activity: 523.5385
[1]; insulin/rHuPH20 follow up study, starting
  rHuPH20 enzymatic activity: 650 U/mL
[1]; rHuPH20/insulin, 1 week 30° C., pH 7.1, 1 mg/mL HA
  rHuPH20 activity (initial 600 U/mL): 341 U/mL
[1]; regular insulin/rHuPH20, 2-8° C., 5 Months, pH 7.6, 50 mM NaCl
  rHuPH20 enzymatic activity: 508.0571
[2]
  reduction of Tm of rHuPH20: about 2 °C
[3]; 20 ° C.
  Average particle size (DLS): 9.48
[3]; 22 ° C.
  Average particle size (DLS): 9.19
[3]; 24 ° C.
  Average particle size (DLS): 9.89
[3]; 26 ° C.
  Average particle size (DLS): 9.96
[3]; 28 ° C.
  Average particle size (DLS): 9.27
[3]; 30 ° C.
  Average particle size (DLS): 8.94
[3]; 32 ° C.
  Average particle size (DLS): 8.96
[3]; 34 ° C.
  Average particle size (DLS): 9.42
[3]; 36 ° C.
  Average particle size (DLS): 9.28
[3]; 38 ° C.
  Average particle size (DLS): 8.91
[3]; 40 ° C.
  Average particle size (DLS): 9.39
[3]; 42 ° C.
  Average particle size (DLS): 9.72
[3]; 44 ° C.
  Average particle size (DLS): 11.36
[3]; 46 ° C.
  Average particle size (DLS): 13.08
[3]; 48 ° C.
  Average particle size (DLS): 21.35
[3]; 50 ° C.
  Average particle size (DLS): 22.74
[3]; 52 ° C.
  Average particle size (DLS): 28.50
[3]; 54 ° C.
  Average particle size (DLS): 32.95
[3]; 56 ° C.
  Average particle size (DLS): 37.01
